From patent US20200270360A1 (ANGIEX, published 2020)
Changes are numbered by the printed parent chain.

Tests used:
[1] = molecular target: T1, human TM4SF1 (transmembrane-4 L six family member-1) (human, UniProt P30408 1-202); experiment: flow cytometry (MFI) on HUVEC
T1 construct: also called hTM4SF1
T1 sequence: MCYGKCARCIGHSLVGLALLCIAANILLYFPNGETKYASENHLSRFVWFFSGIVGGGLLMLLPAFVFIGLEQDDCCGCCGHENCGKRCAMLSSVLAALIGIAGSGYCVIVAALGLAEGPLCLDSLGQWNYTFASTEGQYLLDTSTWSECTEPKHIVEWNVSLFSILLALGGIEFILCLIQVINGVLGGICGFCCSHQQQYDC

[2] = molecular target: T1, human TM4SF1 (transmembrane-4 L six …); experiment: flow cytometry on MDA-MB-468 and HLMEC cells

B1: humanized mutated (hm) AGX-A07 H2L5 V1 (antibody, human IgG1, kappa, V domains shown)
VH: EVQLVQSGAEVKKPGASVKVSCKASGYTFTNYGVKWVRQAPGQGLEWMGWINTYTGNPIYAADFKGRVTMTTDTSTSTAYMELRSLRSDDTAVYYCVRFQYGDYRYFDVWGQGTLVTVSS
VL: EIVLTQSPATLSLSPGERATLSCRANSGISFINWYQQKPGQAPRLLIYGTANLASGIPARFSGSGSGRDFTLTISSLEPEDFAVYYCQQWSSNPLTFGGGTKVEIKR
notes: Full heavy and light chains
B1 was tested, and the EC50 [1] was 1.58 nM.

B2: humanized mutated (hm) AGX-A07 H2L5 V2 (antibody, human IgG1, kappa, V domains shown)
VH: B1 VH
VL: B1 VL with N26Q
notes: Full heavy and light chains; also called AGX-A07 H2v1L5v2
In the case of B2, the EC50 [1] is reported as 1.64 nM.

B3: humanized mutated (hm) AGX-A07 H2L5 V3 (antibody, human IgG1, kappa, V domains shown)
VH: B1 VH
VL: B1 VL with W90Y
notes: Full heavy and light chains
Binder B3 has an EC50 [1] of 4.19 nM.

B4: humanized AGX-A07 H2L5 (antibody, human IgG1, kappa, V domains shown)
VH: B1 VH with E1Q, G44D, Y80F
VL: B1 VL with V3I, S62G
notes: Full heavy and light chains; also called h AGX-A07 H2L5; hAGX-A07 H2L5
B4 was tested, and the EC50 [1] was 1.53 nM.

B5: humanized mutated (hm) AGX-A07 H2L5 V4 (antibody, human IgG1, kappa, V domains shown)
VH: B1 VH
VL: B1 VL with N26Q, W90Y
notes: Full heavy and light chains; also called hm AGX-A07 V4
Binder B5 has an EC50 [1] of 46.1 nM.

B6: humanized AGX-A01 (antibody, human IgG1, kappa, V domains shown)
VH: EVQLVESGGGLVKPGGSLRLSCAASGFTFSSFAMSWVRQAPGKGLEWVSTISSGSIYIYYTDGVKGRFTISRDNAKNSLYLQMNSLRAEDTAVYYCARRGIYYGYDGYAMDYWGQGTLVTVSS
VL: AIVLTQSPGTLSLSPGERATLSCRSSQSLVHSNGNTYLHWYMQKPGQAPRVLIYKVSNRFSGIPDRFSGSGSGTDFTLTISRLEPDDFAIYYCSQSTHIPLAFGQGTKLEIKR
notes: also called h AGX-A01 H1L10; h AGX-A01
In the case of B6, the EC50 [1] is reported as 3.03 nM.

B7: anti-TM4SF1 antibody AGX-A01 (antibody, V domains shown)
VH: EVILVESGGGLVKPGGSLKLSCAASGFTFSSFAMSWVRQTPEKRLEWVATISSGSIYIYYTDGVKGRFTISRDNAKNTVHLQMSSLRSEDTAMYYCARRGIYYGYDGYAMDYWGQGTSVTVS
VL: AVVMTQTPLSLPVSLGDQASISCRSSQSLVHSNGNTYLHWYMQKPGQSPKVLIYKVSNRFSGVPDRFSGSGSGTDFTLKISRVEADDLGIYFCSQSTHIPLAFGAGTKLELK
notes: also called 8G4; AGX-01
B7 was tested, and the “concentration that saturates cell surface TM4SF1 binding” value [2] was 10000 ng/mL.
